Measured values as given in publication PMC5794975, “Mapping the interaction site and effect of the Siglec-9 inflammatory biomarker on human primary amine oxidase” (Scientific Reports, 2018).
Bridges are numbered along the chain shown (N, C = ends). Where no end group is shown, it is not given here.

T1: Human primary amine oxidase (hAOC3), recombinant (human, UniProt Q16853 1-763, topaquinone (TPQ; 2,4,5-trihydroxyphenylalanine quinone, a post-translationally modified tyrosine); N-glycans at Asn137, Asn232, Asn294, Asn592, Asn618, Asn666)
T1 sequence (looked up): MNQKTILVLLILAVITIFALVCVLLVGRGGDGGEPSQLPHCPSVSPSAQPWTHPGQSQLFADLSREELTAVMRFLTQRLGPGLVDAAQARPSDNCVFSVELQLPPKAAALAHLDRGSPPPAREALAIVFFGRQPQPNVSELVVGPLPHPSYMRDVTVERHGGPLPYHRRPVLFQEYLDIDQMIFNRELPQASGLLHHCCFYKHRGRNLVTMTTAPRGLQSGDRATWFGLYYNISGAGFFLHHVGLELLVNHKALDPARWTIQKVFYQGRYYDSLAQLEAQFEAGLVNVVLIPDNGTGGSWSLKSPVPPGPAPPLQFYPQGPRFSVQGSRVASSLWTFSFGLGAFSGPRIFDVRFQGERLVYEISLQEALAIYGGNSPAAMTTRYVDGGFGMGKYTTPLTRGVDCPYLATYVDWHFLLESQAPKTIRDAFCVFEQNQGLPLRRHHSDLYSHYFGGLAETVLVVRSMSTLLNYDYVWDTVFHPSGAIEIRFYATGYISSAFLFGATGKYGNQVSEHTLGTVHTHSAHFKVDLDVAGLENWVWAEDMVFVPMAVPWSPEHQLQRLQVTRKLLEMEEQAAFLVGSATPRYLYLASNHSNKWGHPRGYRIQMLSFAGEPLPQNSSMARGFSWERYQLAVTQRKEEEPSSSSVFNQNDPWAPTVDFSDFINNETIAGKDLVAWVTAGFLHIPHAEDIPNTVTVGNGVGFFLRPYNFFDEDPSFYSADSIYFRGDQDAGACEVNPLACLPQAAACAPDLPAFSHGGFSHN


The binders below were run against T1, Human primary amine oxidase (hAOC3), … (assay: cell-based or functional assay).
In the case of CARLSLSWRGLTLCPSK (disulfide 1-14) [cyclic Siglec-9 peptide (CARLSLSWRGLTLCPSK)], the “activity of hAOC3-expressing CHO cells towards [7-14C]benzylamine with 5 µM peptide, percent of the control without peptide” value is reported as 127%.
CAALSLSWAGLTLCPSK (disulfide 1-14) [R3A/R9A Siglec-9 peptide (CAALSLSWAGLTLCPSK)] was tested, and the “activity of hAOC3-expressing CHO cells towards [7-14C]benzylamine with 5 µM peptide, percent of the control without peptide” value was 158%.
In the case of CAALSLSWRGLTLCPSK (disulfide 1-14) [R3A Siglec-9 peptide (CAALSLSWRGLTLCPSK)], the “activity of hAOC3-expressing CHO cells towards [7-14C]benzylamine with 5 µM peptide, percent of the control without peptide” value is reported as 139%.
CARLSLSWAGLTLCPSK (disulfide 1-14) [R9A Siglec-9 peptide (CARLSLSWAGLTLCPSK)] was tested, and the “activity of hAOC3-expressing CHO cells towards [7-14C]benzylamine with 5 µM peptide, percent of the control without peptide” value was 126%.
